Values of other authors in publication PMC8189991.

Target: Asp96 (UniProt position 109, PLLLLDLALLV)
Experiment: IR

For “Bacteriorhodopsin (Halobacterium salinarum (not stated in the article; inferred))”, the pKa is given as “above 12”.
